Assays:
[1] = target: pbx1_mouse Pbx1 (UniProt P41778)
[2] = target: exd_drome exd (UniProt P40427)
[3] = target: exd_drome exd (UniProt P40427); remark: listed apart in the source
[4] = target: exd_drome exd (UniProt P40427); remark: listed apart in the source

exd_drome exd, sequence (P40427 whole entry): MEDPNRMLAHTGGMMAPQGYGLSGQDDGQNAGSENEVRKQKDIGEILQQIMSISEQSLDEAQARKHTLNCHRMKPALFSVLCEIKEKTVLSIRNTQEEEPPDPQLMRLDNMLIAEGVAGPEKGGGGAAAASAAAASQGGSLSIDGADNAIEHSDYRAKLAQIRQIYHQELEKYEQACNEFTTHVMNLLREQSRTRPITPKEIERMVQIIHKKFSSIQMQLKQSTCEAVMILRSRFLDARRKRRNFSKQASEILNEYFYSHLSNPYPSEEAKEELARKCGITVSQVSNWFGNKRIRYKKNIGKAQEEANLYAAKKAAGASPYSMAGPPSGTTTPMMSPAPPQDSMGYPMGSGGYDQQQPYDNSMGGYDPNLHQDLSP
Homeotic protein labial (Drosophila melanogaster (Fruit fly)), P10105 K393A;W394A;M395A, sequence (P10105 other isoform, or with tags, fused parts or gaps K393A;W394A;M395A): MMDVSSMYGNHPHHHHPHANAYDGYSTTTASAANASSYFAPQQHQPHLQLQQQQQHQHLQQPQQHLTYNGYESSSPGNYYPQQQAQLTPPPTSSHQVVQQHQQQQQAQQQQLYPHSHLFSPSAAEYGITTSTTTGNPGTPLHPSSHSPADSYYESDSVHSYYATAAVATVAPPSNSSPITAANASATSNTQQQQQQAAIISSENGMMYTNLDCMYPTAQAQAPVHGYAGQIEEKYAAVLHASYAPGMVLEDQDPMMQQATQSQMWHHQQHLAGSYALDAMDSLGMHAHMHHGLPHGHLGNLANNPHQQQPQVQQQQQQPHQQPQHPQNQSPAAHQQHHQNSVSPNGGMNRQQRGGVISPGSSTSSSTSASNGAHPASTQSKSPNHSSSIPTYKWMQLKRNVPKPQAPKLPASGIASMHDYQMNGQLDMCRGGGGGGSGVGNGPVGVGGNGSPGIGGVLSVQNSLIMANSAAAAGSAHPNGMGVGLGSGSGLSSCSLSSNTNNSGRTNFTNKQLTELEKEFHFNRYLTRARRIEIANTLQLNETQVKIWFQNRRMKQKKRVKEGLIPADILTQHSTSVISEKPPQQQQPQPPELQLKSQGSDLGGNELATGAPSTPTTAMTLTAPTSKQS
Homeobox protein abdominal-A (Drosophila melanogaster (Fruit fly)), P29555 T375A;D376A;W377A, sequence (P29555 whole entry T375A/D376A/W377A): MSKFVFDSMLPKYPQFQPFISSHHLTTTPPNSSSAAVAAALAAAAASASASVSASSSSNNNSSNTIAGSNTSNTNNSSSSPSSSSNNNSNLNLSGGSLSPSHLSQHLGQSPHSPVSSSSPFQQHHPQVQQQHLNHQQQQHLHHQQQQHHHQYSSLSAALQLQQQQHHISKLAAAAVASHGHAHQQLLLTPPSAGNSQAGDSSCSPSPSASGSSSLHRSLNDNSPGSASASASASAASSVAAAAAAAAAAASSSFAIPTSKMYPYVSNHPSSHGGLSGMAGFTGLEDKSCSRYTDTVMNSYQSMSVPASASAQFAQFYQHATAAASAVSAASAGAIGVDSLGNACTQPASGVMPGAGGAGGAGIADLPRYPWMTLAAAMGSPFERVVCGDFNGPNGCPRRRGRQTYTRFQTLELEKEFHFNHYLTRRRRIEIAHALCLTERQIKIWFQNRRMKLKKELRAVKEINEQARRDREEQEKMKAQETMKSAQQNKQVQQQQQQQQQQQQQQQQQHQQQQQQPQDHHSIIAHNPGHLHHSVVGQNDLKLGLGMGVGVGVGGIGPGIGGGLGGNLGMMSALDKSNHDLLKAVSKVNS
Homeobox protein Hox-B8 (Mus musculus), P09632 W137A;M138A, sequence (P09632 whole entry W137A/M138A): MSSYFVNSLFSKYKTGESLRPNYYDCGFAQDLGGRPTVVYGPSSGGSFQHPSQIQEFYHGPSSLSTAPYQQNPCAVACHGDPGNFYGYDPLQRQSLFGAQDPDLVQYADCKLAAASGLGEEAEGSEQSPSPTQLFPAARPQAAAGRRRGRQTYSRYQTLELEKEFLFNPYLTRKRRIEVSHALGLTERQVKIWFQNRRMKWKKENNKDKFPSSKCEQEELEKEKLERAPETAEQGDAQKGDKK
pbx1_mouse Pbx1, sequence (P41778 whole entry): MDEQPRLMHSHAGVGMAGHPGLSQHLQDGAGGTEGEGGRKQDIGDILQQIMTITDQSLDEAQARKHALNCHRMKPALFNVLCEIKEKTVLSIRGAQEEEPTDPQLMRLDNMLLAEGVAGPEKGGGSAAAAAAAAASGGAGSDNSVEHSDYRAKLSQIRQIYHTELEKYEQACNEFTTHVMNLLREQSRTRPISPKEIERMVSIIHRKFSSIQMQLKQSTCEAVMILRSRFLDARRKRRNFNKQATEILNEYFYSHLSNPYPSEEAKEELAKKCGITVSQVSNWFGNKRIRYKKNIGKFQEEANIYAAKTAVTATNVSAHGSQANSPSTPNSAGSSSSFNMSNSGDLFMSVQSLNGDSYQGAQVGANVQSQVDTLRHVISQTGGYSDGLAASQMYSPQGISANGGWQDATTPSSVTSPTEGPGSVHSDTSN
Homeobox protein abdominal-A (Drosophila melanogaster (Fruit fly)), P29555 E462A;I463A;N464A;E465A, sequence (P29555 whole entry E462A/I463A/N464A/E465A): as the sequence (P29555 whole entry T375A/D376A/W377A) above, with A375T, A376D, A377W, E462A, I463A, N464A, E465A counted along it
Homeotic protein ultrabithorax (Drosophila melanogaster (Fruit fly)), P83949 K358A;E359A;N361A;E362A;Q363A, sequence (P83949 whole entry K358A/E359A/N361A/E362A/Q363A): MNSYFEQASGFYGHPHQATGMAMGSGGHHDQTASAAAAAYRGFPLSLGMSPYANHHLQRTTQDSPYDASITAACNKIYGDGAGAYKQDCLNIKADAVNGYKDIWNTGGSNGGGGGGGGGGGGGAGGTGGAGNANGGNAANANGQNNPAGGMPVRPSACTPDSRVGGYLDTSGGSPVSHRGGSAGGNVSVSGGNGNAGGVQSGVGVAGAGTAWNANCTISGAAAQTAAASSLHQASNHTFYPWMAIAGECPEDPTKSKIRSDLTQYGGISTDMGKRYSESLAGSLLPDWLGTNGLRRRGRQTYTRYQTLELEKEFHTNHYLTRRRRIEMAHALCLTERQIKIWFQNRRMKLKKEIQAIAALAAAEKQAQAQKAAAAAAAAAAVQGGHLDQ

## Homeobox protein Hox-B8 (Mus musculus), P09632 W137A;M138A
[1]
  effect of a mutation on the interaction: decreasing interaction strength

## Homeobox protein abdominal-A (Drosophila melanogaster (Fruit fly)), P29555 E462A;I463A;N464A;E465A
[2]
  effect of a mutation on the interaction: decreasing interaction strength

## Homeobox protein abdominal-A (Drosophila melanogaster (Fruit fly)), P29555 T375A;D376A;W377A
[2]
  effect of a mutation on the interaction: decreasing interaction strength

## Homeotic protein labial (Drosophila melanogaster (Fruit fly)), P10105 K393A;W394A;M395A
[3]
  effect of a mutation on the interaction: decreasing interaction strength

## Homeotic protein ultrabithorax (Drosophila melanogaster (Fruit fly)), P83949 K358A;E359A;N361A;E362A;Q363A
[4]
  effect of a mutation on the interaction: decreasing interaction strength
